Target: T1, human placental RNase inhibitor, P13489
T1 chain: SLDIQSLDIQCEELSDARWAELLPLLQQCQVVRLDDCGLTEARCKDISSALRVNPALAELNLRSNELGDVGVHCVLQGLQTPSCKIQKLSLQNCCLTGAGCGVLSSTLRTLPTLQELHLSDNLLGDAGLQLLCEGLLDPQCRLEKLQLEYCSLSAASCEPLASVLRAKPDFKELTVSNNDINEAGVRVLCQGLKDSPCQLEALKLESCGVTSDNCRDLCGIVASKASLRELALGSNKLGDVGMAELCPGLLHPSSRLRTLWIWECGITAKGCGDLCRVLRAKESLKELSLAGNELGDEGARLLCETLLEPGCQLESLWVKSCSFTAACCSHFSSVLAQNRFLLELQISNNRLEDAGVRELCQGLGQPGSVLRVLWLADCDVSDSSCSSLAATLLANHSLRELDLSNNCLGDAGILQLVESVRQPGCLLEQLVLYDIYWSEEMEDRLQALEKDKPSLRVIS

B1: recombinant carboxy-terminal FLAG-tagged chicken (Gallus gallus) leukocyte RNase A-1 (protein)
chain: VPTYQDFLRTHVDFPKTSFPNIAAYCNVMMVRRGINVHGRCKSLNTFVHTDPRNLNTLCINQPNRALRTTQQQLPVTDCKLIRSHPTCSYTGNQFNHRVRVGCWGGLPVHLDGTFP
  RNase activity (yeast tRNA substrate): completely inhibited RNase activity

B2: recombinant carboxy-terminal FLAG-tagged chicken (Gallus gallus) leukocyte RNase A-2 (protein)
chain: VPTYQDFLYKHMDFPKTSFPSNAAYCNVMMVRRGMTAHGRCKSFNTFVHTDPRNLNTLCINQPDQALRTTRRHFRITDCKLIRSHPTCRYSGNQFNRRVRVGCRGGLPVHLDGTSP
  RNase activity (yeast tRNA substrate): completely inhibited RNase activity
